Laboratory results taken from the nanobody polyreactivity screen of Harvey et al. (2022).

Experiment: yeast display, Sf9 membrane polyspecificity reagent, FACS + sequencing; frameworks hold sequencing errors
Outline: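 After 36–48 hours of galactose induction, yeast (Saccharomyces cerevisiae BJ5465) displaying a synthetic nanobody library were stained at 4 °C for 1 hour with 10% biotinylated, detergent-solubilized Sf9 membrane reagent. Streptavidin microbeads enriched the stained cells before FACS sorting into low and high (top ~1%) gates on anti-HA and streptavidin fluorescence. Each clone's polyreactivity label reflects its gate of origin.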

| Sequence | polyreactivity (PSR sort gate) |
| --- | --- |
| QVQLVESGGGLVQAGGSLRLSCAASGFTFGYYAMGWYRQAPGKERELVAAISASGASTYYADSVKGRFTISRDNAKNTVYLQMNSLKPEDTAVYYCAARPGQLTSPVTRTRYNYWGQGTQVTVSS | low polyreactivity |
| QLQLQESGGGLVQAGGSLRLSCAASGSISRMDYMAWYRQASGKERELVAAIDNGSTTYYADSVKGRLTISRDNAKYTVYLQMNSLKPEDSAVYFCAAVRGRGGTHAYWGQGTQVTVSG | low polyreactivity |
| QVQLVESGGGLVQAGGSLRLSCAASGSIYRNNAMGWYRQAPGKERELVAVISRRAGNTYYAVSVKGRFTISRDNAKNTVYLQMNSLKPEDTAVYYCAADYSKSSIRGDYWGQGTQVTVSS | low polyreactivity |
| QVQLVESGGGLVQAGGSLRLSCAASGYTFLISAMGWYRQAPGKERELVAVISSGGSTSYADSVKGRFTISRDNAKNTVYLQMNSLKPEDSAVYYCAAALAGGRRGGDYWGQGTQVTVSS | low polyreactivity |
| QVQLLESGGGLVQAGGSLRLSCAASGRIFGSNAMGWYRQAPGKERELVAAITRGGSTNYADSVKGRFTISRDNAKNTVYLQMNSLKPEDTAVYYCAVRWYRKYNYWGQGTQVTVSS | high polyreactivity |
| QVQLVESGGGLVQAGGSLRLSCAASGRTFFYYTMGWYRQAPGKEREFVASISWSGASTYYADSVKGRFTISRDNAKNTVYLQMNSLKPEDSAVYYCAAPVTGGAYGYDYWGQGTQVTVSS | high polyreactivity |
| QVQLVESGGGLVQAGGSLRLSCAASGSILYRYTMGWYRPAPGKERELVAAITKRGGRTYYADSVKGRFTISRDNAKNTVYLQMNSLKPEDTAVYYCAAKYYTGGSFEMYYGGQGTQVTVSS | high polyreactivity |
| QVQLVESGGGLVQAGGSLRLSCAASGRIFRVNTMGWYRQSPGKERELVAAIRSSGTRTYYADSVKGRFTISRDNAKNTVYLQMNSLKPEDTAVYYCAATGRRGSGYYYWGQGTQVTVSS | high polyreactivity |
| QIQLVESCGGLVQAGGSLRLICDDSGITFTIYAMGGYRQAHGKERELVAAIDSGGGTNYADSVKGRFTISRDNAKNTVYLQMNSLKPEDTAFYYCAAYWYAEGYWVSRDYWGQGTQVTVSS | low polyreactivity |
| QVQLVESGGGLVQSGGSLRLTCAASGFIFHKYVMGWYSPAPGKEREMVAAISRSGASTYYADSVKGRFTISRDNAKNTVYLQMNSLKPEDTAVYYCAKDYQTYSGSSDFDYWGQGSQVTVSS | high polyreactivity |
| QVQLVVSGGGLVQAGGSLRLSCAASGITFYEYAMGWYRQAPGKERELVAAISSSGCTTYYADSVKGLFTISRDNAKNTVYLQLNSLKPEDTAVYYCAVGQRFAIWGPQGSYFYFESDYWGQGTQVTVSS | low polyreactivity |
| QVQLVESGGGLVQAGGSLRLTCAASGSTSYPYAMGWYRQEPGKERELVATITSGGRTNYADSVKGRFTISRDNAKNTVYLQMHSLKPEDTAVYYCNARFYRWRSYGYDYWGQGTQVTVSS | high polyreactivity |
| QVQLVESGGGLVQAGGSLRLSCAASGFTFVYYTMGWYRQAPGKERELVAAITSGGRTYYADSVKGRFTISRDNAKNTVYLQMNSLKPEDTAVYYCAAPDRYRGYIGYGYWGQGTQVTVSS | high polyreactivity |
| QVQLVESVGGLVQAGGSLRLSCAASGRIFYNYVMGWYRQAPGKERELVAAISSDGGRTYYADSVKGRFTISRDNAKNTVYLQMNSLKPEDTAVYYCAAEWPYGGNGPGHTYEYWGQGTQVTVSS | high polyreactivity |
| QVQLVESGGGLVQAGGSLRLSCAASGRIFSIYAMGWYRQAPGKERELVAAIRSVGDTNYADSVKGRFTISRDNAKNTVYLQMNSLNPEDTAVYYCAAGTSDGGYHYDFWGQGSQVTVSS | high polyreactivity |
| QVQLVESGGGLVQAGGSLRLSCAASGIIFSIYAMGWSRQAPGKERELVAAISGRGGRTYYADSVKGRFTMSRDNAKNTVYLQMNSLKPEDTAVYFCAAGAHAYAHYSWFYFRMHYWGQGTQVTVSS | low polyreactivity |
| QVQLVESGGGLVQAGGSLRLSCAASGSTFSRYAMGWYRQAPGKERELVAAITRSGGGTHYADSVKGRFTISRDNAKNTVYLQMNSLKPEDTAVYYCATDYTKYPTGYYYWGQGTQVTVSS | low polyreactivity |
| QVQLVESGGGLVQAGGSLRLSCAASGFTFRFNAMGWYRQAPGKERELVAAIRQSGGSTYYADSVKGRFTISRDTAKNTVSLQMNSLKPEDTAVYYCATGRSRIRNFGYWGQGTQVTVSS | high polyreactivity |
| QVQLVESGGCLVQAGGSLRLSCSASGRIFNTYAMGWYRQAPGKERDLVARISSGGTTYYADSVKGRFTISRDNAKNTVYLQMNSLKPEDTAVYYCNVRAVTPTRSRPFRYDYWGQGTQVTVSS | high polyreactivity |
| QVQLVESGGGIVQAGCSLRLSCAASGFTFERYTMGWYRQAPGKERELVATISRRSGRTSYADSVKGRFTISRDNAKNTVYLQMNSLNPEDTAVYYCAVDDAYPDRYDYWGQGTQVTVSS | high polyreactivity |
| QVQLVESGGGLVQAGGSLRLSCAASGRIFPAYAMGWYRQAPGTERELVASIRRGGITYADSVKGRFTISRDNAKNTVYLQMNSLKPEDTAVYYCNADYRGWGYHMDYWGQGTQVTVSS | low polyreactivity |
| QVQLVESGGGLVQAGGSLRLSCAASGSILCLNAMGWYRQAPGKERELVADITRGGSTYYADSVKGRFTISRDNAKNTVYLQMNSLKPEDTAVNYCAADAYTGQIPYYYFEHYYWGQGTQVTVSS | high polyreactivity |

| Sequence | polyreactivity (PSR sort gate) |
| --- | --- |
| QVQLVESGGGLVQAGGSLRLSCAASGRTVKPYAMGWYRQAPGKERELVAAISSGVSTHYADSVKGRFTISRDNAKNSVYLQMNSLKPEDTAVYYCDADDWVNYWFDYWGQGTQVTVSS | low polyreactivity |
| QVQLVESGGGLVQAGGSLRLSCAASGFTFGYNDMGWYRQAPGKERELVAGIRSGDDTNYADSVKGRFTISRDNAKNTVYLQMYSLKPEDTAVYYCAADRTTYTYYLPYDYWGQGTQVTVSS | low polyreactivity |
| QVQLVESGGGLVQAGGSLRLSCAASGRIFWSYAMGWYRPAPGKERELVAAIRSGGTTDYADSVKGRFTISRDNAKNTVYLQMNSLKPEDTAVYYCNREYRGAINYIYYYWGQGTQVTVSS | low polyreactivity |
| QVQLVESGGGLVQAGGRHRLSCAPSGSIFRFYVMGWYIQAPGKERELVAAISIGGSTNYADSVKGRFTISRDNAKNTVYLQMNSLKPEDSAVYYCAADGPTYWWTTQWYWGDYWGQGTQVTVSS | low polyreactivity |
| QVQLVESGGGLVQAGGSLRLSCAASGITFGYYAMGWYRQAPGKERELVAAITWSGGSTYYADSVKGRFTISRDNAKNTVYLQMNSLKPEDTAVYYCNADRFGRAHVYPEFDYWGQGTQVTVSS | low polyreactivity |
| QVQLVESGGGLVKAGGSLRLSCAASGSTFGSNALGWYRQAPGKERELVAAISNSGGRTYYADSVKGRFTISRDNAKNTVYLQMNSLKPEDTAVYYCAVGSYRDGDYWGQGTQVTVSS | high polyreactivity |
| QVQLVESGVGLVQAGGSLRLSCAASGSTFRSNALGWYRQAPGKEREVVAGISSGGGTYYADSVKGRFTISRDNAKNTVYLQMNSLKPEDTAVYYCAKVVYFGWSVQYYYWGQGTQVTVSS | low polyreactivity |
| QVQLVESGGGLVQAGGSLRLSCASSGLTFWRYVMGWYRQAPGKESELVATISIGGSTNYADSVKGRFTISRDNAKNTVYLQMNSLKPEDTAVYYCAAKFRGDVFPYYYWGQGTQVTVSS | high polyreactivity |
| QVQLVESGGGLVQAGGSLRLRCAASGFTIGANTMGWYRQAPGKEWELVASISASGGSTYYADSVKGRVTISRDNAKNTVYVQMNSLKPDDTAGYYCAARRYPGRTATYYSWGQGTQVTVSS | high polyreactivity |
| QVQLVESGGGLVHAGGSLRLSCAASGSIIEAYAMGWYRQAPGKEMELVAVISTGGGSTSYADSVKGRFTISRDNAKNTVYLQMNSLKPEDTAVYYCAAEYRWSYFRTYYSWGQGTQVTVSS | low polyreactivity |
| QVQLVESGGGLVQAGGSLRLSCAASGSIFSQYVMGWYRQAPGNERELVAAIVWSSGSTYYADSVKGRFTMSRDNAKNTVYLQMNSLKPEDTAVYYCAARTKAFKPGYGYWGQGTQVTVSS | low polyreactivity |
| QVQLVESGGGLVQAGGSLRLSCAASGSIFYYAMGWYRQAPGKERELVADISTGGSTHYADSVKGRFTISRDNAKNTVYLQMYSLKPEDTAVYYCAKEAWRYRLNFRYNYWVQGTQVTVSS | low polyreactivity |
| QVQLVESGGGLVQAGGSLRLSCAASGSTFDGNAMGWYRQAPGKERELVAAITSGGSTNYADSVKGRFTILRDNAKNTVYLQMNSLKPEDTAVYYCAAGWLYARWHSYVGYYYWGQGTQVTVSS | low polyreactivity |
| QVQLVESGGGLVQAGGSLRLSCAASGSTFDRNVMGWYRQAPGKERELVAAISRVSSTNYADSVKGRFTISRDNAKNTVYLQMNSLKPEDTAVYYCAVDRAGSIMNYWGQGTQVTVSS | low polyreactivity |
| QVQLVESGGGLVQAGGSLRLSCAASGFTFSVNAMGWYRQAPGKERELVAAITWSGGSTYYADSVKGRFTISRDNAKNTDYLQMNSLKPEDTAVFYCNARAQSSWGFWYDYWGQGTQVTVSS | high polyreactivity |
| QVQLVESGGGLVQAGGSLRLSCAASGSTFAYYAMGWYRQAPGKERELVAAITRSTGRTYYADSVKGRFTISRDNAKNTVYLQMNSLKPEDTAVYYCAKTYGYRQPGDYWGQGTLVTVSS | high polyreactivity |
| QVHLVETGGALVQAGGSLSISCAASGSIYHGYTMGWYRQAPGKERELVAAINSGDGSTYADSVKGRFTISRDNAKNTVYLQMNSLKQEDTAVYYCAALYAVYWPWYVREYDYWGHGTQVTVSS | low polyreactivity |
| QVQLVESGGGIVQAGGSLRLSCAASGRNFDVYAMGWYRQAAGKERELVATISSSGVSTSYADSVKGRFTISRDNAKNTVYLQMNSLKPEDSAVYYCARKFLWKGFDYWGQGTQVTVSS | low polyreactivity |
| QDQLVESGGGLVQAGGSLRISCAASGSIFTYNAMGWYREAPGKERELVAAINTSGSTNYADSVKGRFTISRDNAKNTVYLQKNSLKPEDTAVYYCAADYPYWRRPYSRYGYWGQGTQVTVSS | low polyreactivity |
| QVQLVESGGGLVQAGGSLRLSSAASGITFIRYAMGWYSQAPGKERELVAAISSGGSTNYADSVKGRFTISRDNAKNTVYLQMNSLKPEDTAVYYCAARYYWSFAYDYWGQGTQVTVSS | low polyreactivity |
| QVQLVESGGGLVQAGGSLRLSCAASGSTFTGNAMGWYRPAPGKERELVADITWSDGSTDYADSVKGRFTISRDNAKNTVYLQMNSLKPDDTAVYYCNARITYYVGTAWYDYWGQGTQVTVSS | low polyreactivity |
